Our source for the stoichiometry N values is doi:10.1101/2024.03.08.584019.

The target of the experiment is GNNV-P R276A (Dragon grouper (Epinephelus lanceolatus) nervous necrosis virus). As to the kind of experiment: AUC.

The term stoichiometry N denotes the number of molecules, sites or subunits per partner or assembly. Substance GNNV-P R276A (domain or fragment) displayed a stoichiometry N of 3.
